Data on one molecule can be found in patent publication US20120028347A1 (TOKAI UNIVERSITY EDUCATIONAL SYSTEM, published 2012).

Assay [1] has as its target T1, baculovirus-derived recombinant human CD4 (rhCD4) (human, UniProt P01730 26-396, limits assumed).
T1 construct: Bought reagent, coated on ELISA plates at 50 ng/well
In words: ELISA, purified Fab on coated rhCD4 (50 ng/well); amount of antibody at OD650 of about 0.7 to 0.8, where 50% of the maximum binding was observed. The protocol:
Thereafter, the wells were washed with PBS-T (PBS-0.05% Tween) once. Then, 300 μL of PBS-T-SM (PBS-T-1% skim milk) was added thereto, so as to block it at room temperature for 1 hour. Subsequently, the PBS-T-SM was removed, 50 μL of an antibody sample diluted with PBS-T-SM was then added thereto, and the mixture was then left at room temperature for 1 hour. Thereafter, the sample was removed, and the residue was then washed with PBS-T three times. A PO-bound anti-human IgG-Fab antibody was diluted with PBS-T at a ratio of 1:2000, and 50 μL of the thus diluted solution was then added to the wells. The obtained mixture was left at room temperature for 1 hour. Thereafter, the secondary antibody was removed, and the residue was then washed with PBS-T three times. 50 μL of a TMB reagent was added to the resultant, so as to develop color. The color was measured at OD of 650 nm.
(§1) The percentage of peripheral B cells producing human CD4-reactive antibodies in total peripheral B cells was assumed to be approximately 0.0013%. The binding of the IgM Fab of each of the purified three clones to rhCD4 was examined by ELISA (FIG. 2).
(In general: In an ELISA, binding on a coated surface is turned into a signal by an enzyme label.)

In assay [2] the target is T1, baculovirus-derived recombinant human …. In words: ELISA, purified Fab on coated rhCD4. Here is the method:
The rhCD4 was dissolved in a 50 mM carbonate buffer (pH 9.6) solution to a concentration of 2 μg/mL, and the thus prepared solution was dispensed in an amount of 50 μL each into the wells on an ELISA plate, and it was then left at 4° C. overnight. Thereafter, the wells were washed with PBS-T (PBS-0.05% Tween) once. Then, 300 μL of PBS-T-SM (PBS-T-1% skim milk) was added thereto, so as to block it at room temperature for 1 hour. Subsequently, the PBS-T-SM was removed, 50 μL of an antibody sample diluted with PBS-T-SM was then added thereto, and the mixture was then left at room temperature for 1 hour. Thereafter, the sample was removed, and the residue was then washed with PBS-T three times. A PO-bound anti-human IgG-Fab antibody was diluted with PBS-T at a ratio of 1:2000, and 50 μL of the thus diluted solution was then added to the wells. The obtained mixture was left at room temperature for 1 hour. Thereafter, the secondary antibody was removed, and the residue was then washed with PBS-T three times. 50 μL of a TMB reagent was added to the resultant, so as to develop color. The color was measured at OD of 650 nm.
as §1

B1: HO538-213 (Fab, V domains shown)
VH: QVQLVQSGGGVVQPGRSLRLSCAASGFTFSSYGMHWVRQAPGKGLEWVAVVCYDGRTTYYADSVKGRFTISRDISENTLYLQMNSLRAEDTAVYYCAKDLNKGYCNNGGCYGVDCWGQGTLVTVSS
VL: EIVMTQSPATLSLSPGERATLSCRASQSVNNYLAWYQQRPGQAPSLLIYDASNRATGIPARFSGSGSGTDFTLTISSLEPEDFAVYYCQQRGNWPHTFGQGTKLEIKR
notes: Human IgM Fab (mu Fd and kappa light chain) expressed in E. coli JM109 from the vector pFab1-His2 and purified on an anti-Fab column; No sentence says it outright
As usually defined, the EC50 is the concentration that produces a half-maximal response. In the case of B1, the EC50 in assay [1] was approximately 8 µg/mL. Besides, the “affinity relative to the other clones (HO702-001 and HO702-016)” value in assay [2] is 0.125 fold.
